In publication PMC4005650:

How the values were obtained:
[1] = molecular target: T1, LtrA, intron-encoded protein (IEP) of the Lactococcus lactis Ll.LtrB group II intron (Lactococcus lactis), P0A3U0; assay: AUC; sedimentation velocity of purified +A RNP at 7-14 ng/µl; 4°C; 28 000 rpm; 20 mM Tris pH 7.4, 200 mM KCl, 5 mM MgCl2; absorbance at 260 nm; SEDFIT; settings: remark: other sources report otherwise
T1 chain: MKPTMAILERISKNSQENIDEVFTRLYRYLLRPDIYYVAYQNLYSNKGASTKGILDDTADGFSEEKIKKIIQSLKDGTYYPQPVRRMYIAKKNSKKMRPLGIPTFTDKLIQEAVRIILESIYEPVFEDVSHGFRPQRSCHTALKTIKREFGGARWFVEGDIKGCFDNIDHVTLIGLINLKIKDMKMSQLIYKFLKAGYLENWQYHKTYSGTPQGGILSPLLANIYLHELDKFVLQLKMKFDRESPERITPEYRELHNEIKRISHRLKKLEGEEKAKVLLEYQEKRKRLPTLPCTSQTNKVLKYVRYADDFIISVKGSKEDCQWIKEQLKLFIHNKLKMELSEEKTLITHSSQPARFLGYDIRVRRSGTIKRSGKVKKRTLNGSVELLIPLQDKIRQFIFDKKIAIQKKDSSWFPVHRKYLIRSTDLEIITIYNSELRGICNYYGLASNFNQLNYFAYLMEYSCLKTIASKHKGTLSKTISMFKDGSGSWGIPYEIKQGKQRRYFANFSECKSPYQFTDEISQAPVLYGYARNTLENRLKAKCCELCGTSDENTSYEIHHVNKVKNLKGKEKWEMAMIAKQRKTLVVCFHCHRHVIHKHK

[2] = molecular target: T1, LtrA, intron-encoded protein (IEP) of …; assay: SEC-MALS; purified +A RNP (LtrA with 902 nt intron lariat RNA) on Superdex 200 10/300 GL; 20 mM Tris pH 7.4, 200 mM KCl, 5 mM MgCl2; room temperature; mass-averaged dn/dc 0.182 ml/g; settings: remark: other sources report otherwise

stoichiometry N [1]: 2 | stoichiometry N [2]: 2
B1: LtrA, intron-encoded protein (IEP) of the Lactococcus lactis Ll.LtrB group II intron, P0A3U0 1-599 (natural protein)
chain: MKPTMAILERISKNSQENIDEVFTRLYRYLLRPDIYYVAYQNLYSNKGASTKGILDDTADGFSEEKIKKIIQSLKDGTYYPQPVRRMYIAKKNSKKMRPLGIPTFTDKLIQEAVRIILESIYEPVFEDVSHGFRPQRSCHTALKTIKREFGGARWFVEGDIKGCFDNIDHVTLIGLINLKIKDMKMSQLIYKFLKAGYLENWQYHKTYSGTPQGGILSPLLANIYLHELDKFVLQLKMKFDRESPERITPEYRELHNEIKRISHRLKKLEGEEKAKVLLEYQEKRKRLPTLPCTSQTNKVLKYVRYADDFIISVKGSKEDCQWIKEQLKLFIHNKLKMELSEEKTLITHSSQPARFLGYDIRVRRSGTIKRSGKVKKRTLNGSVELLIPLQDKIRQFIFDKKIAIQKKDSSWFPVHRKYLIRSTDLEIITIYNSELRGICNYYGLASNFNQLNYFAYLMEYSCLKTIASKHKGTLSKTISMFKDGSGSWGIPYEIKQGKQRRYFANFSECKSPYQFTDEISQAPVLYGYARNTLENRLKAKCCELCGTSDENTSYEIHHVNKVKNLKGKEKWEMAMIAKQRKTLVVCFHCHRHVIHKHK
